From patent US11833215B2, “CKIT antibody drug conjugates” (Novartis AG, priority 2014, dated 2023)
“Also recorded” adds a separate entry of the source.

Tests used:
mouse cKIT = molecular target: T1, mouse cKIT (Mus musculus, UniProt P05532); experiment: SPR (Biacore) affinity measurement; assay type: binding; settings: 25° C., 1:1 model
T1 construct: cKIT receptor extracellular domains (ECD) were diluted in a 2-fold series
T1 sequence (P05532 25-527 limits assumed): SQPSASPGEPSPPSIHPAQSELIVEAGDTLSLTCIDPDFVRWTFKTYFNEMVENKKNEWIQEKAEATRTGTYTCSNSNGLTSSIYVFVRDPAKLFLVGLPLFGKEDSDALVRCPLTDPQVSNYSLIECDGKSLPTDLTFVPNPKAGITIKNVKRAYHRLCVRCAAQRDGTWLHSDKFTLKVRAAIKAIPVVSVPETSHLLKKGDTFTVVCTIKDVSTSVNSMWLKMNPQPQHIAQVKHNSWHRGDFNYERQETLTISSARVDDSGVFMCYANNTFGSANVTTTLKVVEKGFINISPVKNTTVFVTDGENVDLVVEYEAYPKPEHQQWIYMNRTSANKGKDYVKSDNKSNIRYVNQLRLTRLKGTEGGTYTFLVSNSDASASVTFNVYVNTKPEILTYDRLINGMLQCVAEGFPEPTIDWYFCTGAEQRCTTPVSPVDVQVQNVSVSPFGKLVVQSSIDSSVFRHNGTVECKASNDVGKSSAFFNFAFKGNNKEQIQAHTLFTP
Procedure: (§1) Affinity of the antibodies to cKIT species orthologues and also to cKIT was determined using SPR technology using a Biacore® 2000 instrument (GE Healthcare, Pittsburgh, PA) and with CM5 sensor chips.
(§2) Briefly, HBS-P (0.01 M HEPES, pH 7.4, 0.15 M NaCl, 0.005% Surfactant P20) supplemented with 2% Odyssey® blocking buffer (Li-Cor Biosciences, Lincoln, NE) was used as the running buffer for all the experiments. The immobilization level and analyte interactions were measured by response unit (RU). Pilot experiments were performed to test and confirm the feasibility of the immobilization of the anti-human Fc antibody (Catalog number BR100839, GE Healthcare, Pittsburgh, PA) and the capture of the test antibodies.
(§3) For kinetic measurements, the experiments were performed in which the antibodies were captured to the sensor chip surface via the immobilized anti-human Fc antibody and the ability of the cKIT proteins to bind in free solution was determined. Briefly, 25 μg/ml of anti-human Fc antibody at pH 5 was immobilized on a CM5 sensor chip through amine coupling at flow rate of 5 μl/minute on all two flow cells to reach 10,500 RUs. 0.1-1 μg/ml of test antibodies were then injected at 10 μl/min for 1 minute. Captured levels of the antibodies were generally kept below 200 RUs. Subsequently, 3.125 −50 nM of cKIT receptor extracellular domains (ECD) were diluted in a 2-fold series and injected at a flow rate of 40 μl/min for 3 min over both reference and test flow cells. Table of tested ECDs is listed below (Table 6). Dissociation of the binding was followed for 10 min. After each injection cycle, the chip surface was regenerated with 3 M MgCl2 at 10 μl/min for 30 seconds.

rat cKIT = experiment: SPR (Biacore) affinity measurement; assay type: binding; settings: 25° C., 1:1 model
Procedure: as §1, §2, §3

human cKIT = molecular target: T2, human cKIT (Homo sapiens, UniProt P10721); experiment: SPR (Biacore) affinity measurement; assay type: binding; settings: 25° C., 1:1 model
T2 construct: Human cKIT tr. variant 2 , residues 26-520-TAG; made in house; host or cells: HEK293 derived cell line 293FS, transient transfection
Procedure: as §1, §2, §3

[1] = tested on: cKIT on normal human CD34+ bone marrow cells; experiment: cKIT receptor internalization on bone marrow cells by flow cytometry; assay type: cell-based; settings: 10 μg/ml, 37° C.
Procedure: In another internalization experiment, the impact of NEG085 on cKIT receptor levels was evaluated on human bone marrow cells. Normal human CD34+ bone marrow cells (All Cells, Cat #ABM022F, Emeryville, CA) were thawed and washed with 10 mL of StemPro®-34 SFM medium (Gibco, Life Technologies, Carlsbad, CA). Cells were resuspended in 1.25 mL of StemPro-34 SFM medium at 4×10^5 cells/mL and split equally into two tubes. One tube was untreated, and the other was treated with 10 μg/ml of NEG085 and both were incubated at 37° C., 5% CO2. 100 μL of cell suspension was collected at each timepoint (0, 15, 30, 60, 120, and 240 min) from each condition, and placed into an ice cold collection tube to cease internalization. Cells were washed with 3 mL of ice-cold FBS stain buffer and resuspended in 100 μL of FBS stain buffer. […] of 104D2-BV421 (mouse anti-human IgG1 k, Biolegend, San Diego CA) was added to each tube and incubated on ice for 1 hour. Following another wash with FBS stain buffer, total cKIT receptors were measured by flow cytometry by assessing the mean fluorescence intensity of BV421 on a FACS Canto II® (BD Biosciences, San Jose, CA).

Uke-1 cells = experiment: ADCC activity in vitro (Calcein release, NK3.3 effector cells); assay type: cell-based; settings: unconjugated IgG1, effector to target ratio 20 to 1
Procedure: The ability of the unconjugated anti-cKIT antibodies (NEG085, 20376) to mediate antibody dependent cellular cytotoxicity was determined versus Uke-1 cells (target cells; generously provided by Professor Walter Fiedler, University Hospital Eppendorf, Hamburg, Germany) in co-incubation with NK3.3 cells (killer cells or effector cells; kindly provided by Jacky Kornbluth from Saint Louis University). […] In order to calculate the antibody specific lysis of the target cells, a parallel incubation of target cells only without antibody or effector cells served as a baseline and negative control, whereas the positive control or maximal lysis or hundred percent specific lysis was determined by lysis of target cells only with a 1% Triton-X 100 solution. […] Following a co-incubation of target and effector cells, the microtiterplate was centrifuged and an aliquot of the supernatant fluid was transferred to another microtiterplate (96 well, flat-bottomed, black with clear bottom; (Corning Costar, catalog #3904, Tewksbury, MA) and the concentration of free Calcein in solution was determined with a fluorescence counter (Victor 3 ® multilabel counter, Perkin Elmer, Waltham, MA).

rat cKIT, sequence (as listed by the source): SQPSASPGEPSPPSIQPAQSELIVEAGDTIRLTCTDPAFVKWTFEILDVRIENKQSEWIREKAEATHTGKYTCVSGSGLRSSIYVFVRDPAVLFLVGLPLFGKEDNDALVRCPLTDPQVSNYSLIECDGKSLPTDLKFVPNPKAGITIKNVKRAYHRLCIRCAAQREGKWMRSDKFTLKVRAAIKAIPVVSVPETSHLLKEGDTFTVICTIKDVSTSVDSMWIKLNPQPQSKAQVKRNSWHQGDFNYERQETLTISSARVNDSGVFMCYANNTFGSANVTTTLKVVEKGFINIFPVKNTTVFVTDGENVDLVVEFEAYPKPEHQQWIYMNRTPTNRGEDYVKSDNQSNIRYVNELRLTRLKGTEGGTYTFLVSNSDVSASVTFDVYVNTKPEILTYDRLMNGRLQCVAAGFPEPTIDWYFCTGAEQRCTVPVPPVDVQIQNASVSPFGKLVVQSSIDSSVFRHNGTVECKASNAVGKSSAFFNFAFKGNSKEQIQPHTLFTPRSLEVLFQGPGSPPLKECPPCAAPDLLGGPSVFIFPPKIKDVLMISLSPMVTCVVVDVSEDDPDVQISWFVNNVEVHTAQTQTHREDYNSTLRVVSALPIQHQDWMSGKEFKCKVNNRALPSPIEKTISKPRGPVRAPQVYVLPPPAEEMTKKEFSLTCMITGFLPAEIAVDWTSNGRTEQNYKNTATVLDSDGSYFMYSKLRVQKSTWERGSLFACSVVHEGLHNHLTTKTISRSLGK
T2 sequence (P10721 with tags, fused parts or gaps isoform P10721-2): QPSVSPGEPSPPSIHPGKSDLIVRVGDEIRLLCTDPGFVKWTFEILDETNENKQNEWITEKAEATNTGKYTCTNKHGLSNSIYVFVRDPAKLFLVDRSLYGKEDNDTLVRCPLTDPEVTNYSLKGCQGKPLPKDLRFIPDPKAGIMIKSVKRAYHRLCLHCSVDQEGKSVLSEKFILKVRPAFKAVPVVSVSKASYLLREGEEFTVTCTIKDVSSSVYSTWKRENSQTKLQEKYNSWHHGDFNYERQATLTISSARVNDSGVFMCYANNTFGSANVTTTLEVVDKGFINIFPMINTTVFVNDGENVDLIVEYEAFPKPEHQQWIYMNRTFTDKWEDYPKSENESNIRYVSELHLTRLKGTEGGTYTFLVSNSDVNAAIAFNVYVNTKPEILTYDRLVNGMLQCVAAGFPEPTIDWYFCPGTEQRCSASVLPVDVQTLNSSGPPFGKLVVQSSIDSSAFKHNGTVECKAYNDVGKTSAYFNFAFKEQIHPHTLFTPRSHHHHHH

B1: NEG085: anti-cKIT antibody of Table 3, VH SEQ ID NO 82, VL SEQ ID NO 91 (antibody, listed as Homo sapiens, V domains shown)
VH: EVQLVESGGGLVQPGGSLRLSCAASGFAFSGYYMAWVRQAPGKGLEWVANINYPGSSTYYLDSVKGRFTISRDNAKNSLYLQMNSLRAEDTAVYYCARGDYYGTTYWYFDVWGQGTTVTVSS
VL: DIQMTQSPSSLSASVGDRVTITCRASQSISSYLNWYQQKPGKAPKLLIYYTSRLQSGVPSRFSGSGSGTDFTLTISSLQPEDFATYYCQQGRRLWSFGGGTKVEIK
Affinity mouse cKIT (nM) (mouse cKIT): Not reactive | Affinity to rat cKIT (nM) (rat cKIT): Not reactive | Affinity human cKIT (nM) (human cKIT): nanomolar level | time of bulk of cKIT internalization [1]: 15 min | internalization of cKIT on human bone marrow cells ([1]; 0-240 min): mediate rapid internalization; also recorded: rapidly internalized | ADCC killing of target cells (Uke-1 cells): do not induce ADCC; also recorded: not able to induce ADCC
